Results on one molecule are retold here after PMC2654577.

Common to all, as to assay: enzyme inhibition kinetics
Test [1] addresses factor XIa catalytic domain K175A (human).
Test [2] deals with factor XIa catalytic domain R173A (human) (UniProt P03951).
The target in test [3] is factor XIa catalytic domain K170A (human) (UniProt P03951).
Test [4] concerns the target factor XIa catalytic domain K179A (human).
Test [5] addresses full-length factor XIa autolysis loop variant fXIa-144-149A (human).

B1: C1-inhibitor (natural protein)
chain: NPNATSSSSQDPESLQDRGEGKVATTVISKMLFVEPILEVSSLPTTNSTTNSATKITANTTDEPTTQPTTEPTTQPTIQPTQPTTQLPTDSPTQPTTGSFCPGPVTLCSDLESHSTEAVLGDALVDFSLKLYHAFSAMKKVETNMAFSPFSIASLLTQVLLGAGENTKTNLESILSYPKDFTCVHQALKGFTTKGVTSVSQIFHSPDLAIRDTFVNASRTLYSSSPRVLSNNSDANLELINTWVAKNTNNKISRLLDSLPSDTRLVLLNAIYLSAKWKTTFDPKKTRMEPFHFKNSVIKVPMMNSKKYPVAHFIDQTLKAKVGQLQLSHNLSLVILVPQNLKHRLEDMEQALSPSVFKAIMEKLEMSKFQPTLLTLPRIKVTTSQDMLSIMEKLEFFDFSYDLNLCGLTEDPDLQVSAMQHQTVLELTETGVEAAAASAISVARTLLVFEVQQPFLFVLWDQQHKFPVFMGRVYDPRA
In the case of B1, the k2 (second-order inhibition rate constant) in test [1] is 7300 M⁻¹ s⁻¹; in test [2], 9100 M⁻¹ s⁻¹; in test [3], 10000 M⁻¹ s⁻¹; in test [4], 8800 M⁻¹ s⁻¹; in test [5], 600 M⁻¹ s⁻¹.
